Measurements published in patent publication US20140271603A1 (LABORATOIRE FRANCAIS DU FRACTIONNEMENT ET DES …, published 2014).
Residue numbers refer to the chain shown, from its start.

How the values were obtained:
[1] = molecular target: T1, C3 convertase of the alternative pathway (C3bBb) formed on C3b-coated wells (UniProt P01024 749-1663; P01024 23-667; P00751 260-764, limits assumed); experiment: cell-based or functional assay
[2] = molecular target: T1, C3 convertase of the alternative …; experiment: cell-based or functional assay; remark: listed apart in the source

T1 sequence (P01024 749-1663 limits assumed, chain 1 of 3): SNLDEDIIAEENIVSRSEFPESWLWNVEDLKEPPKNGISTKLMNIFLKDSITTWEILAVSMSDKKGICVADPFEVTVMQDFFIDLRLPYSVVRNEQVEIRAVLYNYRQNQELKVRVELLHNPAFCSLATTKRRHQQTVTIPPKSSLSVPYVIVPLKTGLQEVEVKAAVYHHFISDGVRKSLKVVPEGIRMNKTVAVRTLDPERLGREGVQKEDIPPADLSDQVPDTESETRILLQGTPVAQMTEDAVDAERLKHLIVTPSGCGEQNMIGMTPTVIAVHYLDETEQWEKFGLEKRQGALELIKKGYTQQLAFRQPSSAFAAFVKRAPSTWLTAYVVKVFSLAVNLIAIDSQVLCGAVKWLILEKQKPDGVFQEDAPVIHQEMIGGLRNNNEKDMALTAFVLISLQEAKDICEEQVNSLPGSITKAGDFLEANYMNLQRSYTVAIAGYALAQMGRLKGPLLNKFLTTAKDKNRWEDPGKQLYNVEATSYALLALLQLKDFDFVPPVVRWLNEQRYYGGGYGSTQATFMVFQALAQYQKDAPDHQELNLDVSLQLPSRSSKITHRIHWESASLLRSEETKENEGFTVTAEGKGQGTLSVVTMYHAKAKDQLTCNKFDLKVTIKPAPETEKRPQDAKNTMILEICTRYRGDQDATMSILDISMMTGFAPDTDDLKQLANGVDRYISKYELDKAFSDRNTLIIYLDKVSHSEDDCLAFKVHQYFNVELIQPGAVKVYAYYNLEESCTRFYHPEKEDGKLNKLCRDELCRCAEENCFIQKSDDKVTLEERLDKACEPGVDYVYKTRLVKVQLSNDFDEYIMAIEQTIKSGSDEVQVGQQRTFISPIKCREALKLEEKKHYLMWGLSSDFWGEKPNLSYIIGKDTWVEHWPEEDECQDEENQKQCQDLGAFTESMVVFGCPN
T1 sequence (P01024 23-667 limits assumed, chain 2 of 3): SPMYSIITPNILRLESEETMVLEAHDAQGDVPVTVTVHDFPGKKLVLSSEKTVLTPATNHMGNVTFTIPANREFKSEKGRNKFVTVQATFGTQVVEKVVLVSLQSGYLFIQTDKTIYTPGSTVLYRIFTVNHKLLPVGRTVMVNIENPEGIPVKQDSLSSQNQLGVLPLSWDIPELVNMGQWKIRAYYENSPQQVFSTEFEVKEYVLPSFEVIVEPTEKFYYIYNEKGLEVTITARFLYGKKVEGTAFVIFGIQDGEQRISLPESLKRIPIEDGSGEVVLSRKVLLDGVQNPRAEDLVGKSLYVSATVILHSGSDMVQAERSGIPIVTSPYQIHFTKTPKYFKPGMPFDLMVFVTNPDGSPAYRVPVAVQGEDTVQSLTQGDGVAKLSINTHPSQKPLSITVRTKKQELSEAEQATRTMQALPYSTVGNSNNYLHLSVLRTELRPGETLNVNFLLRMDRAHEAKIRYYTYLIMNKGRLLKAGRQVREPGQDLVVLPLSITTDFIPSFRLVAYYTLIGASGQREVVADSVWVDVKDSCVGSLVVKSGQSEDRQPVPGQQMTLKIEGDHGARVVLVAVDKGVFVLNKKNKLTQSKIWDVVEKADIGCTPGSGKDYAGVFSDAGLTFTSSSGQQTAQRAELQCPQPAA
T1 sequence (P00751 260-764 limits assumed, chain 3 of 3): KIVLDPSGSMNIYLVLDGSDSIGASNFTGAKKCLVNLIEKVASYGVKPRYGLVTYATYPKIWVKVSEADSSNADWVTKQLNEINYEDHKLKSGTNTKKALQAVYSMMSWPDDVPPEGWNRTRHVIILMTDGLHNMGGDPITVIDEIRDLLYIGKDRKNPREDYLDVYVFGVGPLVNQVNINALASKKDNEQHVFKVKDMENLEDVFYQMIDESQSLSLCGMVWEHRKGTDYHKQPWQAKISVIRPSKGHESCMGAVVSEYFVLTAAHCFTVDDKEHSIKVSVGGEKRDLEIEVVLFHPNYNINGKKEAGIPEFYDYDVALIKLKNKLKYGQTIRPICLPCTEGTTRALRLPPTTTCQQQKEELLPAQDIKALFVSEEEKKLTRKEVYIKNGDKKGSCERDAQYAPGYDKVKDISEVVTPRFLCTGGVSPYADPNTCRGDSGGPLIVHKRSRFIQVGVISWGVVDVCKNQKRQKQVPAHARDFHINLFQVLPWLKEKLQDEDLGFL

B1: recombinant human factor H, H402 variant, produced in the HEK 293F cell line (other)
chain: EDCNELPPRRNTEILTGSWSDQTYPEGTQAIYKCRPGYRSLGNVIMVCRKGEWVALNPLRKCQKRPCGHPGDTPFGTFTLTGGNVFEYGVKAVYTCNEGYQLLGEINYRECDTDGWTNDIPICEVVKCLPVTAPENGKIVSSAMEPDREYHFGQAVRFVCNSGYKIEGDEEMHCSDDGFWSKEKPKCVEISCKSPDVINGSPISQKIIYKENERFQYKCNMGYEYSERGDAVCTESGWRPLPSCEEKSCDNPYIPNGDYSPLRIKHRTGDEITYQCRNGFYPATRGNTAKCTSTGWIPAPRCTLKPCDYPDIKHGGLYHENMRRPYFPVAVGKYYSYYCDEHFETPSGSYWDHIHCTQDGWSPAVPCLRKCYFPYLENGYNQNHGRKFVQGKSIDVACHPGYALPKAQTTVTCMENGWSPTPRCIRVKTCSKSSIDIENGFISESQYTYALKEKAKYQCKLGYVTADGETSGSITCGKDGWSAQPTCIKSCDIPVFMNARTKNDFTWFKLNDTLDYECHDGYESNTGSTTGSIVCGYNGWSDLPICYERECELPKIDVHLVPDRKKDQYKVGEVLKFSCKPGFTIVGPNSVQCYHFGLSPDLPICKEQVQSCGPPPELLNGNVKEKTKEEYGHSEVVEYYCNPRFLMKGPNKIQCVDGEWTTLPVCIVEESTCGDIPELEHGWAQLSSPPYYYGDSVEFNCSESFTMIGHRSITCIHGVWTQLPQCVAIDKLKKCKSSNLIILEEHLKNKKEFDHNSNIRYRCRGKEGWIHTVCINGRWDPEVNCSMAQIQLCPPPPQIPNSHNMTTTLNYRDGEKVSVLCQENYLIQEGEEITCKDGRWQSIPLCVEKIPCSQPPQIEHGTINSSRSSQESYAHGTKLSYTCEGGFRISEENETTCYMGKWSSPPQCEGLPCKSPPEISHGVVAHMSDSYQYGEEVTYKCFEGFGIDGPAIAKCLGEKWSHPPSCIKTDCLSLPSFENAIPMGEKKDVYKAGEQVTYTCATYYKMDGASNVTCINSRWTGRPTCRDTSCVNPPTVQNAYIVSRQMSKYPSGERVRYQCRSPYEMFGDEEVMCLNGNWTEPPQCKDSTGKCGPPPPIDNGDITSFPLSVYAPASSVEYQCQNLYQLEGNKRITCRNGQWSEPPKCLHPCVISREIMENYNIALRWTAKQKLYSRTGESVEFVCKRGYRLSSRSHTLRTTCWDGKLEYPTCAKR
IC50, acceleration of the dissociation of C3 convertase (culture supernatant HEK MD2-H402) [1]: 0.052 µg/mL

B2: recombinant human factor H, Y402 variant, produced in the HEK 293F cell line (other)
chain: B1 chain with H384Y
IC50, acceleration of the dissociation of C3 convertase (sample: Purified FH HEK) [2]: 0.0506 µg/mL
IC50, acceleration of the dissociation of C3 convertase (culture supernatant HEK MD1-Y402) [1]: 0.0538 µg/mL
IC50, acceleration of the dissociation of C3 convertase (culture supernatant HEK MD2-Y402) [1]: 0.0507 µg/mL
IC50, acceleration of the dissociation of C3 convertase (culture supernatant HEK MD3-Y402) [1]: 0.0528 µg/mL

B3: recombinant human factor H, H402 variant, produced in the PER.C6 cell line (other)
chain: B1 chain
IC50, acceleration of the dissociation of C3 convertase (culture supernatant PERC6 MD2-H402) [1]: 0.0546 µg/mL

B4: recombinant human factor H, Y402 variant, produced in the PER.C6 cell line (other)
chain: B1 chain with H384Y
IC50, acceleration of the dissociation of C3 convertase (sample: Purified FH PER.C6) [2]: 0.0451 µg/mL
IC50, acceleration of the dissociation of C3 convertase (culture supernatant PERC6 MD2-Y402) [1]: 0.0487 µg/mL
IC50, acceleration of the dissociation of C3 convertase (culture supernatant PERC6 MD3-Y402) [1]: 0.0559 µg/mL
